± gives the standard error. Fewer inactive variants are shown than the library holds.
B1: glmS ribozyme (parent)
chain: AUAAAAGCGCCAGAACUACAGAAAUGUAGUUGACGAGGAGGAGGUUUAUCGAAUUUUCGGCGGAUGCCUCCAAA

Assays:
Details in all cases: with glucosamine-6-phosphate
[1] = variants of: B1; experiment: self-cleavage kobs at 40 uM GlcN6P; higher = faster cleavage; RNA array
Summary of the method: (§1)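 In situ transcription by E. coli RNA polymerase produced barcoded ribozyme variants on sequenced MiSeq chips, and a hybridised Cy3 probe tracked them at 37 °C. Glucosamine-6-phosphate was flowed in at 40 μM to 10 mM in HEPES/KCl/Mg(OAc)2 buffer. kcat and KM were taken from weighted Michaelis–Menten fits of kobs values from exponential decay fits.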

[2] = variants of: B1; experiment: self-cleavage kobs at 2500 uM GlcN6P; higher = faster cleavage; RNA array
Summary of the method: as §1

[3] = variants of: B1; experiment: self-cleavage kobs at 10000 uM GlcN6P; higher = faster cleavage; RNA array
Summary of the method: as §1

[4] = variants of: B1; experiment: self-cleavage kobs at 160 uM GlcN6P; higher = faster cleavage; RNA array
Summary of the method: as §1

[5] = variants of: B1; experiment: self-cleavage kobs at 640 uM GlcN6P; higher = faster cleavage; RNA array
Summary of the method: as §1

Row | Variant | self-cleavage kobs at 40 uM GlcN6P [1] [s⁻¹] | self-cleavage kobs at 2500 uM GlcN6P [2] [s⁻¹] | self-cleavage kobs at 10000 uM GlcN6P [3] [s⁻¹] | self-cleavage kobs at 160 uM GlcN6P [4] [s⁻¹] | self-cleavage kobs at 640 uM GlcN6P [5] [s⁻¹]
1 | U31C A48U C50A A53C U65G G66A | < 1e-05 | < 1e-05 | < 1e-05 | – | –
2 | C19U G38A | < 1e-05 | – | – | – | –
3 | A15C A48G U69G | < 1e-05 | – | < 1e-05 | – | –
4 | C16A G44C C50A | < 1e-05 | – | < 1e-05 | – | –
5 | U30C G43C | < 1e-05 | < 1e-05 | < 1e-05 | < 1e-05 | < 1e-05
6 | A15C G66A | 8.43e-05 ± 1.9e-05 | 0.00264 ± 0.00049 | 0.00503 ± 0.0012 | 0.000372 ± 0.00011 | 0.000599 ± 0.00014
7 | U30C G59C | < 1e-05 | < 1e-05 | < 1e-05 | – | < 1e-05
8 | A14G U54A G59A | < 1e-05 | 8.37e-05 ± 2.7e-05 | 0.000121 ± 3.2e-05 | – | –
9 | A15G G29U U56G G63A | < 1e-05 | – | – | – | –
10 | C16U C34U G37U | < 1e-05 | – | – | – | –
11 | U30C U49A G60C | < 1e-05 | – | – | – | < 1e-05
12 | C16A G29A A36U U65A C71U | < 1e-05 | – | – | – | < 1e-05
13 | U30C C50G U69A | 0.000101 ± 1.6e-05 | – | 0.000171 ± 2.6e-05 | – | –
14 | A15U U31C C50G | 5.26e-05 ± 2.5e-05 | – | – | – | –
15 | U30G A42U G43U A48U G59U | < 1e-05 | – | – | – | –
16 | G29C G32C U57G | < 1e-05 | – | – | – | –
17 | C16A G37U G43U U57C | < 1e-05 | – | < 1e-05 | – | < 1e-05
18 | G29C U30G U31A C50U | < 1e-05 | – | – | – | < 1e-05
19 | A14G U47A C50A | < 1e-05 | – | – | – | –
20 | A14G G35U G37U G44U C71U | < 1e-05 | < 1e-05 | – | – | –
21 | U30G G62C | < 1e-05 | – | < 1e-05 | < 1e-05 | < 1e-05
22 | U30G G51A | < 1e-05 | – | – | < 1e-05 | < 1e-05
23 | U30A A53C G60U | < 1e-05 | < 1e-05 | – | < 1e-05 | < 1e-05
24 | A14G A33U G43A | < 1e-05 | – | < 1e-05 | – | –
25 | U30C G40C U49G G51A | < 1e-05 | – | < 1e-05 | – | –
26 | A15U G38U U55C | < 1e-05 | – | – | – | –
27 | C16U A39C C68A | < 1e-05 | – | < 1e-05 | – | –
